The record followed here is US20070184519A1 (published 2007).

Common to all, as to assay: inhibition of radiolabelled probe peptide binding to purified MHC class II
Experiment [1] has as its target HLA-DR molecule DRB1*1101 (DR5w11) (human).
For experiment [2], the target named is HLA-DR molecule DRB1*1302 (DR6w19) (human).
The target in experiment [3] is HLA-DR molecule DRB5*0101 (DR2w2a) (human).
In experiment [4] the target is HLA-DR molecule DRB4*0101 (DRw53) (human).

On to GLRSLTTLLGALGAQ [EPO 101 analog peptide GLRSLTTLLGALGAQ (SEQ ID NO: 194)], for which the IC50 in experiment [1] came out at 2.6 nM; in experiment [2] it was 858 nM; in experiment [3], 294 nM; in experiment [4], 13 nM.

In general, IC50 refers to the concentration that gives 50% inhibition.
